B1: Translocated intimin receptor Tir (Escherichia coli O127:H6 (strain E2348/69 / EPEC)), B7UM99 (parent)
chain: MPIGNLGNNVNGNHLIPPAPPLPSQTDGAARGGTGHLISSTGALGSRSLFSPLRNSMADSVDSRDIPGLPTNPSRLAAATSETCLLGGFEVLHDKGPLDILNTQIGPSAFRVEVQADGTHAAIGEKNGLEVSVTLSPQEWSSLQSIDTEGKNRFVFTGGRGGSGHPMVTVASDIAEARTKILAKLDPDNHGGRQPKDVDTRSVGVGSASGIDDGVVSETHTSTTNSSVRSDPKFWVSVGAIAAGLAGLAATGIAQALALTPEPDDPTTTDPDQAANAAESATKDQLTQEAFKNPENQKVNIDANGNAIPSGELKDDIVEQIAQQAKEAGEVARQQAVESNAQAQQRYEDQHARRQEELQLSSGIGYGLSSALIVAGGIGAGVTTALHRRNQPAEQTTTTTTHTVVQQQTGGNTPAQGGTDATRAEDASLNRRDSQGSVASTHWSDSSSEVVNPYAEVGGARNSLSAHQPEEHIYDEVAADPGYSVIQNFSGSGPVTGRLIGTPGQGIQSTYALLANSGGLRLGMGGLTSGGESAVSSVNAAPTPGPVRFV

Variants of: B1
Settings: with anxa2_human ANXA2, P07355
Sequence of anxa2_human ANXA2, P07355 (P07355 whole entry): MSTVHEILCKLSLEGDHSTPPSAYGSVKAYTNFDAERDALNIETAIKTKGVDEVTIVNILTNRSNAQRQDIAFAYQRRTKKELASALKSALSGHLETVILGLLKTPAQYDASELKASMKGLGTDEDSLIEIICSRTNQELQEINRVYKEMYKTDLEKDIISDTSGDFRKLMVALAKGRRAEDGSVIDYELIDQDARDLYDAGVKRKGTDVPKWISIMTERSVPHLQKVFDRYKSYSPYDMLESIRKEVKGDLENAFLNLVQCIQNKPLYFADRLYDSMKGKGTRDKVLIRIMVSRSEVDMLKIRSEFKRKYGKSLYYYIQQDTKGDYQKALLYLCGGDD

| Variant | effect of a mutation on the interaction |
| --- | --- |
| Y474S | with no effect |
